Laboratory results from PMC2686167, “Structure of Human DNA Polymerase κ Inserting dATP Opposite an 8-OxoG DNA Lesion”.

Target: T1, DNA polymerase kappa catalytic core (Polκ19-526) (Homo sapiens, UniProt Q9UBT6 19-526)
T1 sequence: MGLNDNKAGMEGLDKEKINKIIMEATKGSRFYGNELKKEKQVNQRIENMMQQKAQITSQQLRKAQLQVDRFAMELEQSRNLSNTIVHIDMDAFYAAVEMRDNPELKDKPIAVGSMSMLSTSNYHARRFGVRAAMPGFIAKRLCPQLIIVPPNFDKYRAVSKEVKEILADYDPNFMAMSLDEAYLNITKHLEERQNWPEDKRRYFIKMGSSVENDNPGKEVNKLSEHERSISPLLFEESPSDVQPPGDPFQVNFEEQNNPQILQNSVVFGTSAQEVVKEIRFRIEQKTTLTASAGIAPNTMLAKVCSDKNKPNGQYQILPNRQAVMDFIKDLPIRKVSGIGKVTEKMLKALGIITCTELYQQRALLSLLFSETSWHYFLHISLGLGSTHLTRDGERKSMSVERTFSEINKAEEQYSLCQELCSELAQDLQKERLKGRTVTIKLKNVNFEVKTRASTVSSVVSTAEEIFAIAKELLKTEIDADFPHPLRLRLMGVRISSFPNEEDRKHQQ
Assay: X-ray crystallography (3.2 Å); dATP, Mg2+ (ternary complex); Crystal structure only; cocrystallization conditions not in the material
Details: protein: recombinant; tags: N-terminal GST removed with PreScission protease; 5' overhang 5 nt on template; recessed 3' primer end

B1: 13-nt/18-nt primer/template with 8-oxoG (dsDNA)
DNA 1: CCTAGGAGTCCTTCCCCC
DNA 2: GGGGGAAGGACTC
modifications: template G5 = 7,8-dihydro-8-oxoguanine; primer 3' terminal C = dideoxycytidine
- binding result: binds
